# In PMC8653885, “Higher expression of the strawberry xyloglucan endotransglucosylase/hydrolase genes FvXTH9 and FvXTH6 accelerates fruit ripening” (The Plant Journal, 2019):
# System: T1, OC[C@@H](O)[C@@H](O[C@@H]1O[C@H](CO[C@H]2OC[C@@H](O)[C@H](O)[C@H]2O)[C@@H](O[C@@H]2O[C@H](CO[C@H]3OC[C@@H](O)[C@H](O)[C@H]3O)[C@@H](O[C@@H]3O[C@H](CO[C@H]4OC[C@@H](O)[C@H](O)[C@H]4O)[C@@H](O)[C@H](O)[C@H]3O)[C@H](O)[C@H]2O)[C@H](O)[C@H]1O)[C@H](O)[C@@H](O)CO
# T1 construct: called FvXTH6 by Opazo et al. 2017
# Assay: radiochemical XET assay, 3H incorporation into xyloglucan, Michaelis-Menten
# Type: biochemical, Fragaria vesca
# Details: acceptor substrate, donor 1% (w/v) tamarind xyloglucan, [3H]XXXGol diluted with unlabelled XXXGol (0-357 μM), labelled compound, general XET assay: 100 mM Na succinate pH 5.5, 25 °C
substance,measurement,value
FvXTH9 (Fragaria vesca subsp. vesca),Km,43 µM
